These results are taken from US20110020842.

Data set [1] has as its target arrayed peptide library (198 peptide mixtures with a central fixed Ser/Thr phosphorylation site, degenerate flanking positions and a carboxy-terminal biotin tag).
Data set [2] addresses T1, consensus peptide substrate eEF2p (Ac-RKKYKFNEDTERRRFL).
T1 chain: RKKYKFNEDTERRRFL

B1: eEF2 kinase (Elongation Factor 2 Kinase) (protein)
chain: MADEDLIFRLEGVDGGQSPRAGHDGDSDGDSDDEEGYFICPITDDPSSNQNVNSKVNKYYSNLTKSERYSSSGSPANSFHFKEAWKHAIQKAKHMPDPWAEFHLEDIATERATRHRYNAVTGEWLDDEVLIKMASQPFGRGAMRECFRTKKLSNFLHAQQWKGASNYVAKRYIEPVDRDVYFEDVRLQMEAKLWGEEYNRHKPPKQVDIMQMCIIELKDRPGKPLFHLEHYIEGKYIKYNSNSGFVRDDNIRLTPQAFSHFTFERSGHQLIVVDIQGVGDLYTDPQIHTETGTDFGDGNLGVRGMALFFYSHACNRICESMGLAPFDLSPRERDAVNQNTKLLQSAKTILRGTEEKCGSPQVRTLSGSRPPLLRPLSENSGDENMSDVTFDSLPSSPSSATPHSQKLDHLHWPVFSDLDNMASRDHDHLDNHRESENSGDSGYPSEKRGELDDPEPREHGHSYSNRKYESDEDSLGSSGRVCVEKWNLLNSSRLHLPRASAVALEVQRLNALDLEKKIGKSILGKVHLAMVRYHEGGRFCEKGEEWDQESAVFHLEHAANLGELEAIVGLGLMYSQLPHHILADVSLKETEENKTKGFDYLLKAAEAGDRQSMILVARAFDSGQNLSPDRCQDWLEALHWYNTALEMTDCDEGGEYDGMQDEPRYMMLAREAEMLFTGGYGLEKDPQRSGDLYTQAAEAAMEAMKGRLANQYYQKAEEAWAQMEE
Regarding B1, the “phosphorylation of peptide library (radiolabel incorporation)” value in data set [1] is on record as “The kinase was able to efficiently phosphorylate peptides within the library”. Also, in data set [2], the “fold increase in activity as compared to peptide MH-U” value is on record as 30 to 35 fold increase in activity and the “phosphorylation at a single substrate concentration (100 µM)” value is “both peptides are efficiently phosphorylated by their respective kinases”.
